Laboratory results: publication PMC12209146
“And” between values parts separate entries of the source, which are not always exact repeats. Equal entries are not always repeated.

Biological target: toxin B (TcdB) from Clostridioides difficile VPI 10,463 (Clostridioides difficile VPI 10,463) (UniProt P18177)
Sequence (P18177 whole entry): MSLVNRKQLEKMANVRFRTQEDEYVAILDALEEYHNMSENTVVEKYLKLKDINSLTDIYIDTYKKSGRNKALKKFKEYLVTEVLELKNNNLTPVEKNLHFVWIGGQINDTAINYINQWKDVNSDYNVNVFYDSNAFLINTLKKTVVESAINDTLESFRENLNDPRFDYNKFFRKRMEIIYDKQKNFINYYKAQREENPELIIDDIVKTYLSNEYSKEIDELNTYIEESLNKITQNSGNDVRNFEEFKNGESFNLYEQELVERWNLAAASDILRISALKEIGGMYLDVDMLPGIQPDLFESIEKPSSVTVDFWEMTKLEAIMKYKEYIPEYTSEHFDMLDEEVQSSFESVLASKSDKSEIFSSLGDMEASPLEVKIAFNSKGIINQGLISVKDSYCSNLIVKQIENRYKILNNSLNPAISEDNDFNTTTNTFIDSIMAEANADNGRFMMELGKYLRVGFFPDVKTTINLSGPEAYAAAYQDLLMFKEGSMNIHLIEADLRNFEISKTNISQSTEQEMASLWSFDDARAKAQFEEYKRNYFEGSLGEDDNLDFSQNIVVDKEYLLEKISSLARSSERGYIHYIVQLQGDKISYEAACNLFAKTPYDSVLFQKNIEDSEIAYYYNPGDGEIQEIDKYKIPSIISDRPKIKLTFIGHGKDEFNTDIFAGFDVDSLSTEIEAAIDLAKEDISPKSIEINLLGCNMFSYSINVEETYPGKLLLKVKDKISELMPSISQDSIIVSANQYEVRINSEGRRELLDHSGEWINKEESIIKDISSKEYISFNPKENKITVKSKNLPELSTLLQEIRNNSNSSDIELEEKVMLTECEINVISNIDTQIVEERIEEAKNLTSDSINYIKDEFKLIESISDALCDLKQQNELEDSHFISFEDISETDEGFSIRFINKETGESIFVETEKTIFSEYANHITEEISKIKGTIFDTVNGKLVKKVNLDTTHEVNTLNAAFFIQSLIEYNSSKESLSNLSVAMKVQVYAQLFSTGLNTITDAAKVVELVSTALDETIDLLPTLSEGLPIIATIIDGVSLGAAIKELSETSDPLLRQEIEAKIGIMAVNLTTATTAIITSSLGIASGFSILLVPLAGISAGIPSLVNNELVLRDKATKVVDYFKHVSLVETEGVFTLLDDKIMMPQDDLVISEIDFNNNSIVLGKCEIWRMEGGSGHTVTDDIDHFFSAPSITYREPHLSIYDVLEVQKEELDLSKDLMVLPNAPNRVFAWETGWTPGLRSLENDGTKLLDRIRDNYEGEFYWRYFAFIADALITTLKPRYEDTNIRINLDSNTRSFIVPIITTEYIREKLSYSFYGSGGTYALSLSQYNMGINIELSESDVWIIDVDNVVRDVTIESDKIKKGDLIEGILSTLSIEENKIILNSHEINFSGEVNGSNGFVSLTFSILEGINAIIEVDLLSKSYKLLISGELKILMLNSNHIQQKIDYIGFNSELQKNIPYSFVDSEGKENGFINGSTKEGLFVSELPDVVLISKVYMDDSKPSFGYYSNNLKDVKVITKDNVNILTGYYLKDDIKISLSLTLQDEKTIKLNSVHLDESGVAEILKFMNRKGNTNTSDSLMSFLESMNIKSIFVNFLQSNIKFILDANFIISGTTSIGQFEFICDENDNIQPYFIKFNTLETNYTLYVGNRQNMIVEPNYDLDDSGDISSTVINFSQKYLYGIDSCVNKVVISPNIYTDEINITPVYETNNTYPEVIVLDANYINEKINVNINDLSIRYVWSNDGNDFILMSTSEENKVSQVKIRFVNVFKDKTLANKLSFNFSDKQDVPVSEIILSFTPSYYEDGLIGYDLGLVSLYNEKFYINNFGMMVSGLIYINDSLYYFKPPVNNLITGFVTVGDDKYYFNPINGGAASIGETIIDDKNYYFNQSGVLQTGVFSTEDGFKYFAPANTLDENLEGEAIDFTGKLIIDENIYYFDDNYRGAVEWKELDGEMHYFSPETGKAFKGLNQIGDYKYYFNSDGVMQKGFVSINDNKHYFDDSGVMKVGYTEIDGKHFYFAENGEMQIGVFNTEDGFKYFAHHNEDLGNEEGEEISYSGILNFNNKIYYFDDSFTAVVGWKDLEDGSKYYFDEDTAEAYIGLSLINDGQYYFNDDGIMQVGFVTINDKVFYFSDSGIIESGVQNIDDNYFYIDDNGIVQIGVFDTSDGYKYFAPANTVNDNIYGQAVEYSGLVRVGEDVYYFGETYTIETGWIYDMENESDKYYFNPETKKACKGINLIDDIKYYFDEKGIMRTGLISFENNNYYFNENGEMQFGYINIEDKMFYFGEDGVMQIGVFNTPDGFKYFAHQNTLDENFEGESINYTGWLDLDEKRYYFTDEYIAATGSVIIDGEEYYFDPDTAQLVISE

With KFINIFIHGNKRSIKAI [Angie 5] the other was 40.9 µM and 46.3 µM.
